Laboratory results: patent US8940299B2, “Method of treating cancer” (Case Western Reserve University, priority 2008, dated 2015)

B1: C5a: Murine C5a complement anaphylatoxin from Cell Sciences (protein)
chain: NLHLLRQKIEEQAAKYKHSVPKKCCYDGARVNFYETCEERVARVTIGPLCIRAFNECCTIANKIRKESPHKPVQLGR

Key:
phospho-Ser473 AKT = assay: AKT phosphorylation in WT T cells stimulated with anti-CD3+anti-CD28 (immunoblot, Luminex); type: cell-based, mouse; settings: 0.1 μM PI-103, 20 min
Protocol: FIG. 5 illustrates immunoblots of A) anti-phospho-Ser473 AKT (rep of 5 exps) of WT T cells incubated with anti-CD3+anti-CD28±C5aR-A+C3aR-A (10 ng/ml each). B) anti-phospho-Ser473 AKT (rep of 5 exps) of WT or C5ar1−/−C3ar1−/− T cells incubated with anti-CD3+anti-CD28.
FIG. 6 illustrates C5aR and C3aR Ligation Activates PI3-Kγ, which in turn promotes AKT Phosphorylation. […] (p<0.05). […] (B) WT T cells were incubated at 37° C. with anti-CD3+anti-CD28 (1 μg/ml each) for 3 min after which the cells were incubated for 20 min with buffer or 0.1 μM PI-3Kγ-specific inhibitor PI-103. Extracts were immunoblotted with anti-phospho-Ser^473 AKT or total AKT mAb (representative of five experiments). (C) OT-II T cells were incubated with 0.1 μM OVA323-339, WT DCs, and 0.1 μM PI-103±10 ng/ml C5a. Complement, IL-2, and IFNγ mRNAs were quantitated by qPCR. All error bars are ±SD.
To test whether abrogated CD28 costimulation in the absence or blockade of C5aR+C3aR relates to a requirement for these GCPR signals for optimal AKT phosphorylation, we stimulated WT T cells with anti-CD3+anti-CD28±C5aR-A and C3aR-A and assessed AKT phosphorylation by immunoblotting (FIG. 5A) and Luminex assay (FIG. 6A).
Cells were stimulated for 1 hr with 1 μg/ml anti-CD3 and/or anti-CD28 (BD Biosciences) in serum-free RPMI 1640 for qPCR analyses and for 72 hr for IFNγ ELISPOT assays. […]

[1] = system: Complement, IL-2, and IFNγ mRNAs; assay: qPCR of complement, IL-2 and IFNγ mRNAs in T cells with PI-103; type: cell-based, mouse
Protocol: To test whether this signaling pathway is operational in T cells, we incubated WT T cells with anti-CD3+anti-CD28 plus a specific inhibitor (PI-103) of PI-3Kγ.
We synthesized cDNAs by incubating 20 μl of mRNAs in Sprint PowerScript Single Shots (Clontech, Mountain View, Calif.). A total of 10 μl of diluted cDNA were mixed with 2 μl of primer and 10 μl SYBR green master mix (Applied Biosystems, Foster City, Calif.) and assayed in triplicate on an ABI prism 7000 cycler. In all assays, fold increases are relative to each basal level and standardized to Actin.

EGF receptor (EGFR) = assay: EGFR phosphorylation in the 3 tumor lines (immunoprecipitation, anti-phosphotyrosine immunoblot); type: cell-based, murine
Text: (§1) Unregulated EGFR signaling has causally linked with certain cancers. Additionally, an earlier study in the literature reported that added C5a can induce EGFR phosphorylation in HeLa cells. Based on these two findings, we next asked whether EGFR phosphorylation in cancers cells is in fact dependent on C3aR/C5aR signal transduction. To do this, we cultured each of the 3 tumor lines in the presence of buffer alone, C5aR-A/C3aR-A and anti-C3a/anti-C5a mAb, or vehicle and nonrelevant mAb controls. After 2 hr, we added increasing amounts of EGF, 2 min after which we extracted the cells with NP-40 lysis buffer. We then immuoprecipitated EGFR from lysates with specific antibody and probed immunoblots of the precipitates with anti-phosphtyrosine mAb. […] To determine this C3aR/C5aR dependent step is an intermediary for EGFR phosphorylation, we repeated the above study this time using PI-103, a specific inhibitor of this enzyme. […] In a converse study, we incubated each of the 3 tumor lines without and with added C5a and measured cell growth.

T cells = assay: In vitro T cell viability in serum-free HL-1 medium; type: cell-based, mouse; settings: 300 ng/ml C5a added at time 0 and 90 min, both knockouts
Protocol: FIG. 7 illustrates constitutive C5a and C3a Production and Signaling via the C5aR and C3aR GPCRs Influences Cell Viability In Vitro and In Vivo. […] (B) WT and C5ar1^−/−, C3ar1^−/−, and C5ar1^−/− C3ar1^−/− T cells were incubated for 6 hr in serum-free HL-1 medium and viability assayed. (C) WT T cells were incubated at 37° C. for 6 hr in HL-1 medium±anti-C3a, anti-C5a, or anti-C3a+anti-C5a and viability assessed. (D) C3^−/− and C5-deficient T cells were incubated for 6 hr in HL-1 medium±300 ng/ml C5a added at time 0 and 90 min (E) Spleens from naive WT, C3ar1^−/−, C5ar1^−/−, and C3ar1^−/− C5ar1^−/− mice were isolated (three to five animals per group), total cell numbers were counted, and the CD3^+ fraction was determined by flow cytometry (WT=10%, C5ar1^−/−=5.4%, C3ar1^−/−=6.3, and C5ar1^−/− C3ar1^−/−=4.1%). (F) Immediately after isolation and labeling, 10^6 CFSE-labeled WT T cells and CellTracker Red CMTPX-labeled C5ar1^−/− C3ar1^−/− T cells were adoptively cotransferred into the same SCID mice (n=4 mice per group for each time point). […]
To test this possibility, we compared the survival of WT and C5ar1^−/− C3ar1^−/− T cells in vitro […]. […] Fewer surviving C5ar1^−/− C3ar1^−/− T cells were detected at 6 hr, confirming that disrupted autocrine signaling through both the C5aR and C3aR contributed to the decline (FIG. 7B). […]

B16/F10 (melanoma cell) = assay: Cell growth after mouse C5a treatment in Opti-MEM; type: cell-based, murine; settings: 100 nM C5a, 72 hr culture
Protocol: (§2) FIG. 2 illustrates graphs showing cell growth in 3 cancer cell lines (a) MCA 205 (fibrosarcoma), (b) B16 (melanoma cell), and (c) E0771 (breast cancer) after mouse C5a treatment in Opti-MEM media (serum-reduced media).
(§3) (a) MCA 205, (b) B16/F10 and (c) E0771. Data are representative of two experiments with duplicates. MCA 205 and E0771 were treated with 500 nM C5a and B16/F10 was treated with 100 nM C5a respectively.
(§4) Three kinds of cancer cell lines (B 16/F10, MCA 205 and E0771) were used for this experiment. Each cell line was cultured in 12-well plates (3×10^4/well) in serum reduced Opti-MEM media (Invitrogen) containing L-glutamine and penicillin+streptomycin for the indicated times (24 hr, 48 hr and 72 hr). C5a (Cell Sciences) in PBS was added in each well at 0, 24 and 48 hr time point to a final concentration 100 nM for B16/F10 and 500 nM for MCA205 and E0771 based on the preliminary experiment. At each time point (24 hr, 48 hr and 72 hr), live cells were trypsinized and counted using trypan blue (Invitrogen, Carlsbad, Calif.). Experiment was repeated two times with duplicates.

E0771 (breast cancer) = assay: Cell growth after mouse C5a treatment in Opti-MEM; type: cell-based, murine; settings: 500 nM C5a, 72 hr culture
Protocol: as §2, §3, §4

MCA 205 (fibrosarcoma) = assay: Cell growth after mouse C5a treatment in Opti-MEM; type: cell-based, murine; settings: 500 nM C5a, 72 hr culture
Protocol: as §2, §3, §4

3 tumor lines = assay: Cell growth of the 3 tumor lines without and with added C5a; type: cell-based, murine; settings: all 3 tumor lines
Text: as §1

PI-3Kγ = PI-3Kγ enzyme activity in immunoprecipitates of tumor lines with added C5a; type: cell-based, murine; settings: PI-3Kγ immunoprecipitates
Text: as §1

Molecule | anti-CD3+anti-CD28-induced phosphorylation of AKT (phospho-Ser473 AKT) | upregulation of IL-2 and IFNγ mRNA expression ([1]; 0.1 μM PI-103) | upregulation of complement gene expression ([1]; 0.1 μM PI-103) | EGF induced EGFR phosphorylation (EGF receptor (EGFR); 3 tumor lines, 2 hr pre-treatment, increasing amounts of EGF for 2 min) | overcoming of the suppressive effects of PI-103 by added C5a ([1]; 0.1 μM PI-103 + 10 ng/ml C5a) | augmentation of 6 hr viability of C5-deficient or C3−/− T cells (T cells) [%] | cell survival in comparison with control (B16/F10 (melanoma cell)) | cell survival in comparison with control (E0771 (breast cancer)) | cell survival in comparison with control (MCA 205 (fibrosarcoma)) | EGFR phosphorylation (EGF receptor (EGFR); anti-EGFR immunoprecipitates, added C5a) | tumor cell numbers (3 tumor lines) | PI-3Kγ enzyme activity (PI-3Kγ)
Oc1cccc(-c2nc(N3CCOCC3)c3oc4ncccc4c3n2)c1 [PI-103] | abrogated | eliminated | prevented | inhibited EGFR phosphorylation in an identical fashion |  |  |  |  |  |  |  | 
B1 |  |  |  |  | could not be overcome | ~25 | enhances cell survival | enhances cell survival | enhances cell survival | augmented EGFR phosphorylation | increased tumor cell numbers | augmented PI-3Kγ enzyme activity
